Where “and” joins values, the source holds several entries; their conditions need not be identical. Equal values may be shown once.
What was measured:
[1] = target: FXaI prepeptide expressed by plasmid pFSHI-6 (Met-His-His-His-His-His-His-Gly-Thr-Asp-Asp-Asp-Asp-Lys-FXaI) (Hirudo medicinalis)
human plasma = experiment: APTT coagulation assay in human plasma; format: biochemical
Method: (§1) APTT (activated partial thromboplastin time) of fresh murine or human plasma was monitored by visual assessment of its clotting in the absence or presence of various amounts of FXaI. Briefly, FXaI (up to 50 μl), 100 μl of plasma and 100 μl of partial thromboplastin (Actin-FS) were incubated for 3 minutes at 37° C. The coagulation cascade was activated by the addition of 100 μl of 20 mM CaCl2. The FXaI concentration in the abscissa is based on the assumption that 1 mu=1 pmol. Murine plasma--.circle-solid.; human plasma--.diamond-solid.. The arrows indicate the FXaI concentration at which doubling of the APTT is obtained.
(§2) The inhibitory activity of FXaI was also assayed as the increase of the activated partial thromboplastin time (APTT) essentially as described in Spaethe, Haemostasis, AHS/Deutschland GmbH, Munich (1984), using as reagent Actin FS (Dade), which contains ellagic acid for activation of Factors XII and Factor XI, and soy bean phospholipid. Under these conditions, and in the presence of 20 mM CaCl2, only the intrinsic pathway of coagulation is activated.
(§3) Isoform A (the major fraction of naturally occurring FXaI isolated from DLS) was used in these experiments. […] The protein concentration of this batch was assayed by SDS-Bradford (Macart and Gerbaut, Clin. Chim. Acta 122:93-101 (1982)) and was determined to be ~20 μg/ml.

FXa = experiment: chromogenic FXa inhibitory activity assay (hydrolysis of CHG); format: biochemical, bovine; details: for Inhibitory activity (specific activity), FXa: 1 mu = amount causing 50% inhibition with 2 nM FXa
Method: Increasing amounts of FXaI purified on Mono-Q were preincubated for 3 minutes with 2 pmol bovine FXa in a 1 ml cuvette. The initial rate of hydrolysis of the substrate CHG was monitored at 405 nm (see Example 2). Fraction 47 was the peak fraction of a particular purification experiment.
The assay of FXa inhibitory activity is based on the inhibition of the FXa-mediated hydrolysis of the chromogenic substrate methoxycarbonyl-D-cyclohexylglycyl-glycyl-arginyl p-nitroanilide (CHG) as described below.
The appropriate substrate concentration was determined from the molar absorbance which is 8210 at 342 nm. The reaction mixture contains 50 mM Tris-HCl pH 8.2, 5 mM CaCl2, 200 mM NaCl, 0.1% PEG, 40 μM substrate, and approximately 2 nM FXa. The FXa concentration is determined more precisely from the initial (first 20 seconds) rate of CHG hydrolysis at 40 μM in the absence of inhibitor based on the kinetic parameters mentioned above.
Inhibition of the increase in absorbance may be observed in the presence of the FXa inhibitory activity of an FXa inhibitor such as FXaI of the present invention. The inhibitor concentration is the difference in absorbance between the reaction in the presence and absence of inhibitor multiplied by the FXa concentration.
This determination assumes the formation of a 1:1 enzyme-inhibitor complex, and further assumes that the dissociation constant is low enough (i.e., tight binding) to enable essentially total binding of the inhibitor (FXaI) to the enzyme (FXa). In fact, the saturation shape of the dose-response curve (FIG. 3) provides evidence that a finite and not negligible dissociation of the inhibitor-enzyme complex occurs under these conditions. The dose response curve is represented by the degree of inhibition versus FXaI concentration and is further described in Section 5.2.
The degree of dissociation of the FXa-FXaI complex is characterized by the inhibition constant (Ki) and may be determined from the inhibited velocity of the hydrolysis of the chromogenic substrate CHG. […] The Ki of naturally occurring FXa in the chromogenic assay is about 9 nM.
The determination of inhibitor concentration determined by the above method is therefore probably underestimated. It was found useful to define the FXaI concentration as the protein concentration (IC50) required to obtain a constant degree of inhibition, usually 50% and to define the amount causing 50% inhibition under these reaction conditions to be 1 milliunit (mu) or 1 pmol. IC50 is generally higher than Ki, and depending on the type of inhibition, can be shown to depend variously on substrate concentration, Ki, Km and other factors (Segel, I. (1974) "Enzyme Kinetics", Wiley Interscience). In fact, the range of values of IC50 was determined to be about 10-20 nM.
The FXaI activity assay used to determine concentration during purification and characterization was performed in an Elisa Titertek Twin Reader, Type 380 (EF LAB). The final activity measurement of purified protein was also performed in a Phillips (model PU 8720) UV/Vis scanning spectrophotometer.

murine plasma = experiment: APTT coagulation assay in murine plasma; format: biochemical
Method: as §1, §2, §3

thrombin [2] = experiment: thrombin inhibition assay according to Lottenberg et al.; format: biochemical
Method: The refolded and dialyzed protein so obtained was assayed for FXa inhibitory activity by the biochemical chromogenic assay described in Example 2. The results are shown in Table 6 as milliunits per mg protein (mu/mg). The amount of protein causing 50% inhibition in an assay mixture containing 2 nM FXa is defined as 1 mu. In addition, the refolded protein was also tested for its inhibitory effect on thrombin, another proteolytic enzyme of the coagulation cascade, which was assayed according to Lottenberg et al. Methods Enzymol. 80:341-361 (1981).

[3] = target: bovine Factor Xa (bovine) (UniProt P00743)
thrombin [4] = target: thrombin
[5] = target: bovine Factor Xa (bovine) (UniProt P00743); remark: listed apart in the source
[6] = target: bovine Factor Xa (bovine) (UniProt P00743); remark: listed apart in the source
Factor Xa [7] = experiment: prothrombinase complex assay, modified protocol (50 pM FXa, 1.35 µM prothrombin)
Factor Xa [8] = target: Factor Xa
Factor Xa [9] = experiment: prothrombinase complex assay (FXa 250 pM, prothrombin 2.67 µM, FVa, cephalin, Ca++)
Factor Xa [10] = target: Factor Xa; remark: listed apart in the source
[11] = target: bovine Factor Xa (bovine) (UniProt P00743); remark: listed apart in the source
Target sequence in this assay (P00743 41-492): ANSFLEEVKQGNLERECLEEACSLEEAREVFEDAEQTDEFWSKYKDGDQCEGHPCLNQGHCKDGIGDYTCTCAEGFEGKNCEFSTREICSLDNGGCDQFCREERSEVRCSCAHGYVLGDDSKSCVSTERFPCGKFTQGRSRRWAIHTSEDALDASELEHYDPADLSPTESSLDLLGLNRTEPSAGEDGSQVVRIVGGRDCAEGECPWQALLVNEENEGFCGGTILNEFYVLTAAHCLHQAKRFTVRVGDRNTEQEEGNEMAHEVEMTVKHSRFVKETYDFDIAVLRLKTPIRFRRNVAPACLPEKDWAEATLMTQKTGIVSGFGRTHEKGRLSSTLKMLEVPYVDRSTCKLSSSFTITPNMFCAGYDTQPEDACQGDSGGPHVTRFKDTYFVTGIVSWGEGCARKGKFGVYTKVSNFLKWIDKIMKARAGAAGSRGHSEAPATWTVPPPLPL

[12] = target: bovine Factor Xa (bovine) (UniProt P00743); remark: listed apart in the source
Target sequence in this assay (P00743 41-492): as above

[13] = target: bovine Factor Xa (bovine) (UniProt P00743); remark: listed apart in the source
Target sequence in this assay (P00743 41-492): as above

[14] = target: bovine Factor Xa (bovine) (UniProt P00743); remark: listed apart in the source
Target sequence in this assay (P00743 41-492): as above

Molecule: Enterokinase (Biozyme, Great Britain) (enzyme)
- cleavage efficiency by SDS-PAGE analysis [1]: 95%

Molecule: Isoform A: major fraction of naturally occurring FXaI from DLS, eluted by low salt gradient, 13-14 kD
- concentration causing doubling of the APTT (human plasma): 10 mu/ml
- concentration causing doubling of the APTT, based on protein concentration (human plasma): 87 nM
- activity in the chromogenic assay, equivalent (FXa; assuming tight binding between FXa and inhibitor): 164 pmol/mL
- activity in the chromogenic assay (FXa; batch of ~20 μg/ml protein): 164 mu/ml
- concentration causing doubling of the APTT (murine plasma): 3.5 mu/ml
- concentration causing doubling of the APTT, based on protein concentration (murine plasma): 30 nM

Molecule: Met-His-His-His-His-His-His-Gly-Thr-Asp-Asp-Asp-Asp-Lys-FXaI [FXaI prepeptide]
- FXa inhibitory specific activity (FXa; prior to cleavage with enterokinase): 1000-1200 mu/mg protein

Molecule: Refolded 11"f": refolded fusion protein: 63 N-terminal amino acids of modified Cu/Zn-SOD, met-phe-val linker, FXaI tyr26 to gly110; plasmid pDeo-S-XaI-11"f"
- Inhibitory activity (specific activity), Thrombin (thrombin [2]): < 1 mu/mg
- Inhibitory activity (specific activity), FXa (FXa; listed as Refolded 11"f" Batch 1): 150 mu/mg
- Inhibitory activity (specific activity), FXa (FXa; listed as Refolded 11"f" Batch 2): 95 mu/mg
- Inhibitory activity (specific activity), FXa (FXa; listed as Refolded 11"f" Batch 3): 89 mu/mg
- specificity for FXa versus thrombin (FXa; ratio of specific activities): greater than 80 fold

Molecule: isoform A of naturally occurring FXaI isolated from DLS
- activity in the chromogenic assay [3]: 164 mu/ml

Molecule: isoform B of naturally occurring FXaI isolated from DLS
- Specific activity, mu/mg (inhibition of thrombin) (thrombin [4]): < 1 mu/mg
- Specific activity, mu/mg (inhibition of FXa, chromogenic assay) [5]: 507 mu/mg

Molecule: naturally occurring FXaI (Factor Xa inhibitor) purified from dilute leech saliva (DLS) of Hirudo medicinalis
- IC50 in the chromogenic FXa assay [6]: 10 to 20 nM
- Ki (Factor Xa [7]): 0.12 nM
- IC50 in the prothrombinase complex assay (generation of thrombin from prothrombin) (Factor Xa [8]): 190 pM
- Ki (Factor Xa [9]): 0.072 nM

B1: mature recombinant FXaI obtained by enterokinase cleavage of the pFSHI-6 prepeptide (protein)
chain: YEVIYVDDPCEDSDCEDGNKCSPVTNECDCSPVRCRLHCNFYVKDSNGCETCACEPKCKHKNCPTGHHCNKLTNKCELKKQRRMG
- concentration causing doubling of the APTT (Factor Xa [10]): 12.2 µg/mL
- FXa inhibitory specific activity in the chromogenic assay, after removal of the extension peptide by chromatography [11]: 8000 mU/mg
- FXa inhibitory specific activity in the chromogenic assay, following cleavage with enterokinase (mu/mg protein) [11]: 4000 and 4500

B2: mature recombinant FXaI obtained by CNBr cleavage of the FXaI dimer (protein)
chain: B1 chain
- specific activity in the chromogenic assay (route II: refolded, then cleaved with CNBr), B [12]: 4700 mu/mg
- specific FXa inhibitory activity in the chromogenic assay (route I: cleaved, then refolded) [13]: 1900 mU/mg
- specific activity in the chromogenic assay (route II: refolded, then cleaved with CNBr), A [14]: 2470 mu/mg

B3: cleaved, refolded product: mature FXaI from the FXaI dimer (plasmid pMLK-XaI-D-11"m") cleaved with CNBr, then refolded (protein)
chain: B1 chain
- specific FXa inhibitory activity (FXa; Route I: dimer cleaved with CNBr, then refolded): 1900 mU/mg

B4: FXaI prepeptide expressed by plasmid pFSHI-6 (Met-His-His-His-His-His-His-Gly-Thr-Asp-Asp-Asp-Asp-Lys-FXaI) (protein)
chain: MHHHHHHGTDDDDKYEVIYVDDPCEDSDCEDGNKCSPVTNECDCSPVRCRLHCNFYVKDSNGCETCACEPKCKHKNCPTGHHCNKLTNKCELKKQRRMG
- FXa inhibitory specific activity in the chromogenic assay, prior to cleavage (mu/mg protein) [11]: 1000 and 1200
